Results published in PMC7311918.

Assays:
Test in all cases: SEC-MALS
[1] = biological target: HCoV-229E S 2P trimer (S ectodomain, residues 17-1113) (HCoV-229E) (UniProt P15423)
[2] = biological target: HCoV-NL63 S 2P trimer (S ectodomain, residues 16-1291) (HCoV-NL63) (UniProt Q6Q1S2)
[3] = biological target: HCoV-OC43 S 2P trimer (S ectodomain, residues 15-1263) (HCoV-OC43)

Substance: HCoV-229E S 2P trimer (S ectodomain, residues 17-1113) (from UniProt P15423 17-1113) (natural protein)
- stoichiometry N [1]: 3

Substance: HCoV-NL63 S 2P trimer (S ectodomain, residues 16-1291) (from UniProt Q6Q1S2 16-1291) (natural protein)
- stoichiometry N [2]: 3

Substance: HCoV-OC43 S 2P trimer (S ectodomain, residues 15-1263) (natural protein)
- stoichiometry N [3]: 3
